B1: Solute carrier family 12 member 1 (Homo sapiens), Q13621 (parent)
chain: MSLNNSSNVFLDSVPSNTNRFQVSVINENHESSAAADDNTDPPHYEETSFGDEAQKRLRISFRPGNQECYDNFLQSGETAKTDASFHAYDSHTNTYYLQTFGHNTMDAVPKIEYYRNTGSISGPKVNRPSLLEIHEQLAKNVAVTPSSADRVANGDGIPGDEQAENKEDDQAGVVKFGWVKGVLVRCMLNIWGVMLFIRLSWIVGEAGIGLGVLIILLSTMVTSITGLSTSAIATNGFVRGGGAYYLISRSLGPEFGGSIGLIFAFANAVAVAMYVVGFAETVVDLLKESDSMMVDPTNDIRIIGSITVVILLGISVAGMEWEAKAQVILLVILLIAIANFFIGTVIPSNNEKKSRGFFNYQASIFAENFGPRFTKGEGFFSVFAIFFPAATGILAGANISGDLEDPQDAIPRGTMLAIFITTVAYLGVAICVGACVVRDATGNMNDTIISGMNCNGSAACGLGYDFSRCRHEPCQYGLMNNFQVMSMVSGFGPLITAGIFSATLSSALASLVSAPKVFQALCKDNIYKALQFFAKGYGKNNEPLRGYILTFLIAMAFILIAELNTIAPIISNFFLASYALINFSCFHASYAKSPGWRPAYGIYNMWVSLFGAVLCCAVMFVINWWAAVITYVIEFFLYVYVTCKKPDVNWGSSTQALSYVSALDNALELTTVEDHVKNFRPQCIVLTGGPMTRPALLDITHAFTKNSGLCICCEVFVGPRKLCVKEMNSGMAKKQAWLIKNKIKAFYAAVAADCFRDGVRSLLQASGLGRMKPNTLVIGYKKNWRKAPLTEIENYVGIIHDAFDFEIGVVIVRISQGFDISQVLQVQEELERLEQERLALEATIKDNECEEESGGIRGLFKKAGKLNITKTTPKKDGSINTSQSMHVGEFNQKLVEASTQFKKKQEKGTIDVWWLFDDGGLTLLIPYILTLRKKWKDCKLRIYVGGKINRIEEEKIVMASLLSKFRIKFADIHIIGDINIRPNKESWKVFEEMIEPYRLHESCKDLTTAEKLKRETPWKITDAELEAVKEKSYRQVRLNELLQEHSRAANLIVLSLPVARKGSISDLLYMAWLEILTKNLPPVLLVRGNHKNVLTFYS
B2: Solute carrier family 12 member 6 (Mus musculus), Q924N4-1 (parent)
chain: MHPPEATTKMSSVRFMVTPTKIDDIPGLSDTSPDLSSRSSSRVRFSSRESVPETSRSEPMSELSGATTSLATVALDPSSDRTSNPQDVTEDPSQNSITGEHSQLLDDGHKKARNAYLNNSNYEEGDEYFDKNLALFEEEMDTRPKVSSLLNRMANYTNLTQGAKEHEEAENITEGKKKPTKSPQMGTFMGVYLPCLQNIFGVILFLRLTWVVGTAGILQAFAIVLICCCCTMLTAISMSAIATNGVVPAGGSYFMISRALGPEFGGAVGLCFYLGTTFAAAMYILGAIEIFLVYIVPRAAIFRSDDALKESAAMLNNMRVYGTAFLVLMVLVVFIGVRYVNKFASLFLACVIVSILAIYAGAIKSSFAPPHFPVCMLGNRTLSSRHLDICSKTKEVDNMTVPSKLWGFFCNSSQFFNATCDEYFVHNNVISIQGIPGLASGIITENLWSNYLPKGEIIEKPSAKSSDVLGNLNHEYVLADITTSFTLLVGIFFPSVTGIMAGSNRSGDLKDAQKSIPIGTILAILTTSFVYLSNVVLFGACIEGVVLRDKFGDAVKGNLVVGTLSWPSPWVIVIGSFFSTCGAGLQSLTGAPRLLQAIAKDNIIPFLRVFGHSKANGEPTWALLLTAAIAELGILIASLDLVAPILSMFFLMCYLFVNLACALQTLLRTPNWRPRFRYYHWALSFMGMSICLALMFISSWYYAIVAMVIAGMIYKYIEYQGAEKEWGDGIRGLSLSAARFALLRLEEGPPHTKNWRPQLLVLLKLDEDLHVKHPRLLTFASQLKAGKGLTIVGSVIVGNFLENYGDALAAEQTIKHLMEAEKVKGFCQLVVAAKLKEGISHLIQSCGLGGMKHNTVVMGWPNGWRQSEDARAWKTFIGTVRVTTAAHLALLVAKNVSFFPSNVEQFSEGNIDVWWIVHDGGMLMLLPFLLKQHKVWRKCSIRIFTVAQLEDNSIQMKKDLATFLYHLRIEAEVEVVEMHDSDISAYTYERTLMMEQRSQMLRHMRLSKTERDREAQLVKDRNSMLRLTSIGSDEDEETETYQEKVHMTWTKDKYMASRGQKVKSMEGFQDLLNMRPDQSNVRRMHTAVKLNEVIVNKSHEAKLVLLNMPGPPRNPEGDENYMEFLEVLTEGLERVLLVRGGGSEVITIYS

How the values were obtained:
[1] = variants of: B1; settings: with stk39_mouse Stk39, Q9Z1W9
[2] = variants of: B1; settings: with oxsr1_mouse Oxsr1, Q6P9R2
Target sequence in this assay (Q6P9R2 whole entry): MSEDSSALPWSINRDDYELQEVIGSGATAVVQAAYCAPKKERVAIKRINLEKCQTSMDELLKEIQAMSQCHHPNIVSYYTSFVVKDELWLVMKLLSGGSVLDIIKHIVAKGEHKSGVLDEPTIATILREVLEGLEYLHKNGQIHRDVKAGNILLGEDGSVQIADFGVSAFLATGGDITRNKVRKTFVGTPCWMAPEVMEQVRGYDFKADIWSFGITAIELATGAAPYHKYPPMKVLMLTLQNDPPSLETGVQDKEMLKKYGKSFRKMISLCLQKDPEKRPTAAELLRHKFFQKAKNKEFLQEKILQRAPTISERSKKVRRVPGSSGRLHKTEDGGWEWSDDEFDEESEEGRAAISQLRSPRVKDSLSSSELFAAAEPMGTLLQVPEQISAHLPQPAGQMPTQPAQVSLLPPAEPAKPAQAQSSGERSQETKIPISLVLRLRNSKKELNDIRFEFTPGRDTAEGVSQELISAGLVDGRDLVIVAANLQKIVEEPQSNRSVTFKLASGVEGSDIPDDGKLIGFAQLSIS

[3] = variants of: B2; settings: with oxsr1_mouse Oxsr1, Q6P9R2; remark: listed apart in the source
Target sequence in this assay (Q6P9R2 whole entry): as above

[4] = variants of: B2; settings: with stk39_mouse Stk39, Q9Z1W9; remark: listed apart in the source

effect of a mutation on the interaction [1] | effect of a mutation on the interaction [2] | effect of a mutation on the interaction [3] | effect of a mutation on the interaction [4] | Variant
decreasing interaction | decreasing interaction |  |  | R20A
decreasing interaction | decreasing interaction |  |  | N27A
 |  | decreasing interaction | decreasing interaction | K21A
 |  | decreasing interaction | decreasing interaction | V17A
 |  | decreasing interaction | decreasing interaction | P19A
 |  | decreasing interaction | decreasing interaction | R14A

Continued, variant first:

Variant | effect of a mutation on the interaction [1] | effect of a mutation on the interaction [2] | effect of a mutation on the interaction [3] | effect of a mutation on the interaction [4]
S24A | decreasing interaction | decreasing interaction |  | 
V23A | decreasing interaction | decreasing interaction |  | 
V25A | decreasing interaction | decreasing interaction |  | 
E28A | decreasing interaction | decreasing interaction |  | 
F21A | decreasing interaction | decreasing interaction |  | 
I22A |  |  | decreasing interaction | decreasing interaction
F15A |  |  | decreasing interaction | decreasing interaction

— IntAct's records for PubMed 12386165
